From publication doi:10.1101/2024.02.12.579695 come the findings set out here.

Data set [1] addresses truncated DR2539 (DR2539tr, residues 4-142) (Deinococcus radiodurans). Kind of data set: SAXS.
In data set [2] the target is DR2539 full length (Deinococcus radiodurans). Kind of data set: SEC. A general note: In gel filtration, larger molecules generally elute earlier.
The target is the same in data set [3]. Kind of data set: SAXS.
Another data set has as its target T1, DR2539 full length (Deinococcus radiodurans, UniProt Q9RRF3 1-232).
T1 sequence: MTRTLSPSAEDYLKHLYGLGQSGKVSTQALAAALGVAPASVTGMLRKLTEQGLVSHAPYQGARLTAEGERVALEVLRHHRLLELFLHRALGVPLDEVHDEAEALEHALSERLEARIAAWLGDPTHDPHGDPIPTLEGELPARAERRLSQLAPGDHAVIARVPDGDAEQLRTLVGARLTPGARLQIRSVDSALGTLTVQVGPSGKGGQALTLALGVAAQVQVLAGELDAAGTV
Kind of data set: EMSA.

With “truncated DR2539 (DR2539tr, residues 4-142) (domain or fragment)”, the stoichiometry N (in general, the number of molecules, sites or subunits per partner or assembly) in data set [1] is 2. As to DR2539 full length (natural protein), the stoichiometry N in data set [2] and in data set [3] was 2 throughout.

B1: dr1709p_wt (dsDNA)
DNA 1: ATTTTAGTCGCGCCTAAAATA
DNA 2: TATTTTAGGCGCGACTAAAAT
As for B1, the binding result with DR2539 full length was “binds”.
